assay: soluble on expression in E. coli; label from the status in PepcDB or PDB records

| Sequence | soluble on expression in E. coli |
| --- | --- |
| MGSDKIHHHHHHMEHPENNEEYKGLVVNKGIEQPSSVNPYLKRKPKKRQLSVAEFVEGIVKGDVTILSQAVTLVESVKPEHQAVAQEVIEKCLPYSGNSIRVGISGVPGAGKSTSIDVFGLHVLEKGGKLAVLAIDPSSERSKGSILGDKTRMEQLSVHPQSFIRPSPSAGSLGGVARKTRETIVLCEAAGFDKIFVETVGVGQSETAVHSMVDFFLLIQLAGTGDELQGIKRGIMEMADGIVINKADGDNLEPAKLAASQFRNALHLFPAPESGWIPKVLTYSGFYNIGVKEIWDMVYEYIDFVKKNGYFDYRRNEQSKYWMYETINEQLRDSFYHNPRIEAMLQEKEQQVLQGNLTSFIAAKSLLDTYFDELKR | not soluble |
| GPGSMSAIPPPHYVRLRRYNLSIFVHCDVHNDTVQAIKERYGKLTGHIFYNARLYLGQQSLDDFLTLYGCGIEAEGAELVVVHSKGAKGDGTSEHIWETVEEAMAAPQGDSLNSPEVTAEGTAKLDSMEAAATSNEVGNQQQQQAADARGGTGAELNVGFVGV | soluble |
| MSIEPTQVSREAELGAFLRTHRERLTPSDVGLPPGRRRRTPGLRREEVAQLSGLSATWITWLEQGRPVAMSVRALGSLAEALRLSRAERAYLFALAGKPEPRQDAEPAVPVALLASVQAISGPAYLLDRQWTARAWNAAAADLFVGWLDAASGERNLLRAMFLPTALQALVEDWPHRAARLVAEFRVHSLRHAEDPPTRALIERLMEDSPAFAAAWRSQDVDERQGGRRGFHHPMRGLVYFEQLTLVPPAAPGMMLVMLLPETP | soluble |
| MSLYNDSLFNAFARSFEARSQHDMSMAEYLESCRSDPMKYANAAERLLAAIGEPQTIDTAKDPRLGRIFLNRTIRTYPAFAGFYGMEETIERIVGFFRHAAQGLEERKQILYLLGPVGGGKSSLAERLKSLMEVHPIYVLKAGDELSPVFESPLSLFDPDQLGPMLEEKYGIPRRRLTGLMSPWCYKRLEAFGGDISQFRVAKIQPSRLRQIAIAKTEPGDENNQDISSLVGKVDIRKLETYAQNDPDAYSYSGGLNRANQGILEFVEMFKAPIKMLHPLLTATQEGNYIGTENIGAIPFTGIILAHSNEAEWASFKANKNNEAFIDRICVIKVPYVLRVTEEQKIYEKLIQGSELASAPCAPSTLETMARFSVMSRLRKHENSTVFGKMRVYDGESLKESDPKARSVQEYRDAAGVDEGMDGVSTRFAFKILAATFNHDPQEVAADAVHLMYALEQSIKREQLPEEVEKRYLEFIKADLAPRYAEFIGNEIQKAYLESYSDYGQNLFDRYVDYADAWIEDQDFKDPDTGQLLDRELLNQELTKIEKPAGIANPKDFRNEVVKFSLRSRAQNGGKNPTWTSYEKIRDVIEKRIFSQVEDLLPVISFGSKKDGETEKKHGEFVARMVERGYTERQVRRLVEWYMRVKQAGEGHHHHHH | soluble |
| MISITSAEVGMKINEWHRHIQKFNVTDAEMLKAEIERDIEVMEEDQDLLIYYQLMAFRHKIMLEYTLPSDENRMELSEYLNKIEGHKKKLDNMRAYYYNFFRGMYEFRNGEYTRAITYYKKAERKIPTISDKIEKAEFYFKLSEVYYHMKMTHISMHYAELSYNIYKKHELYSVRRIQCHFVIAGNYDDLENHEKALPHLQEALKGAELLKSKNTHIYATAFFNLGNCYHKMDNLNKAARYIEQALVQYRKINSDVLPQAYHDLALIYFKQGKKGQAMDCFRKGIRSAVDFKDELFMNLFEALDVLYIRNGDTPKLLNIFSRLENGKGYPYLEELALLGGNLFDYNGKIEDSIICFKK | not soluble |
| SLQTLEKSVIGVRVAVEASPVGASRRAREGWRRPASRHEAGALPLPSEQHITFFKLRPGCLDFLRRVSQTFELYMYTMGTALHAATALRILDPKRRFFGRRVFSRQDAVNGLKAIERIFPHDQKMVLVVDDLECMWRYSPCCIKVQGYHYFADVSAADARRISPHSYTQWLSMARPFCNFLPSERIKLCRHVRRCLPSKDA | not soluble |
| MPTFLLVNDDGYFSPGINALREALKSLGRVVVVAPDRNLSGVGHSLTFTEPLKMRKIDTDFYTVIDGTPADCVHLGYRVILEEKKPDLVLSGINEGPNLGEDITYSGTVSGAMEGRILGIPSIAFSAFGRENIMFEEIAKVCVDIVKKVLNEGIPEDTYLNVNIPNLRYEEIKGIKVTRQGKRAYKERVFKYIDPYGKPFYWIAAEEFGWHAEEGTDYWAVLNGYVSVTPLHLDLTNYKVMKSIKYLEDSP | soluble |
| SLLTTCKSVLKLPYLEKIKVVAGEKGLNRIITWVQVVEYPEYSKWLKGGELILISGIAIKNNINSLVNFIRDINSRSLSGIVISIGPYIKEIPKEVIEIGNQLDFPIFEIPFEVKFIDVSQSICKAIFANKVNQESMENFMKDIIFRDFTFSEDILSRAVAYGYNPKTKYISFVVELHNEKDMLECDLKTKQYIEQIVIEVLGEWNKRSIHIMQYNSIILMLPKNEKRTIKNIAMNIIEEIISKAKNTSVNIGVGGEFSELRDFKISVSEAHRCLKVLKLNNDNNTVISYDELGIYKLFFQMDNLEEMKKFYLDVLKKLIDYDSKN | soluble |
| MGSDKIHHHHHHMFRRIREDLIKNHMEGPQGFRSMLAGWVECGFCTIVEDEIRFWNGSRIYLCHCKDEKDRFKYQGAEIHVLLIDELTHFTEVIYRFLRNRVRMVGIKLPAKYAGRFPRILCGANPGGIGHQFVKATFIDGATAMKVYTTEASEGGMRRQFIPAQLEDNPSMNDNDPGYENRLMGLGSESLVRAMRYGDWDVVEGAYFDNFERRRHVVKPFTIPDHWIRFRAGDWGSAKPFAFGWYVVASDDTIIAPGVVVPRGALVKYREWYGVKIDKSGKFLPDVGLKLHAEAVGAGVRQRDYDDIIVYGVLDPAAFSQDGGPSIAERMTRGTTGSNGSTFRRADNKRTAGRGAMGGWDQLRGRLTGDGDGRPMLFFFDTCIHTIRTLPALQHDEANPEDLDTKQEDHAADETRYACMSRPWIAKSKVPAPQVPEGHIALPGAPDEAAGNRRIRI | not soluble |
| GNFTYAHSEFLKYEEPAYNEKYRSHIGQSLNQWYGLIAERLFIDEYDVQNSPKQTFGEYGAGDIKYRDVNGDGQITDADMVPLGYPTVPEIVYGFGFSFGNQRFDISAFFQGSARSSFWIDAKATSPFQHINPTDDDPYHQDIPLLKAYANDHWSESNRNLYAMWPRLSTTVIENNVRTSSWFMRNGAFLRLKTLEVGYTLPESWTKKAYISSARVYCSGNNLLLLSGFKLWDIEMGGSGLGYPIQRVINLGVQINF | not soluble |
| MDNLKDFKNEALVVTNASDGNTPHIVQGIEPDGSLRTKPLAQAKPSETFLHIDRNKSVIGTFFSNMNRQYDRPSDFRFYHLPVEMLSAAKDLVEIFKFPEENGQLLSNYAIDIRQPAQEQSITGDTPQQTTRWGVDEVDWQQLARMGVTPESLGETGMQRLLNGHESAVLDIRISFEGIDFETPACIRLVESAGGKPVLNVECCKRYPELDRPYMGTELSPEVKENLSRSNNAGCVVELELAGGVREPCLLSLNPKTNRLHHVPVSEITIPQEVNRVRLSDDQTTRLARGESVLVENMWSEKKQGYYDARLQYNVCKGGFTYDFRGLNRKQAQSETQMRSRELVIPQVLKGVGLTPEVREKLAAGKTVHIKDMTDNEGNLFSAFVRVNHERAKFDFFKWNPDKSKKQGQSQQAAVRQEGTKPENTVSRNRPVQKTDKKGVSI | not soluble |
| MSSNFRHQLLSLSLLVGIAAPWAAFAQAPISSVGSGSVEDRVTQLERISNAHSQLLTQLQQQLSDNQSDIDSLRGQIQENQYQLNQVVERQKQILLQIDSLSSGGAAAQSTSGDQSGAAASTTPTADAGTANAGAPVKSGNANTDYNAAIALVQDKSRQDDAMVAFQNFIKNYPDSTYLPNANYWLGQLNYNKGKKDDAAYYFASVVKNYPKSPKAADAMFKVGVIMQDKGDTAKAKAVYQQVISKYPGTDGAKQAQKRLNAM | soluble |
| MDQIFNKVGSYWLGQKANKQFDSVGNDLNSVSTSIEGGTKWLVNKIKGKMQKPLPELLKEYDLPIGIFPGDATNYEFDEETKKLTVLIPSICEVGYKDSSVLKFTTTVTGHLEKGKLTDVEGIKTKVMIWVKVTSISTDASKVYFTAGMKKSRSRDAYEVQRNGLRVDKF | soluble |
| MKGYFETNRIQHIIVDEAQNFHTEDGNWCEKAKGITQGGKACPRMFWIFLDYFQTSHLKESGLPDFELQYPKEELTQVVRNGDKIAEFLQQELGKIRDNPPCSIPRASLNIVHEFKWSQSISGTLKIKYLTSEKMVSYVANKCDVFLSKGYSPQDIAVLFSTDREKKAYEHMFLREMRKKRRASQMNDTSVCHSNMFDRIRRFSGLERSIVFGINPIATEQPISHNLLICLASRAMKYLYILYALTPEGQSSTVAC | not soluble |
| MIVTEHLFAIEDQTECLISALLESDAVQNYKETKKAMYASAEVAQLQKAFLEAKSAFERVEAYGIHAPDFREKQRALRKAKRALDLNEIVANYRFAETNVQTLLDTIGLKIAQLISEDIKVDAGNPFFERGKKHSGCGGSCHAS | not soluble |
| MKVYEFGKKENPAIMLLPGTCCHWKNNFSNVIDLLIEDFFVVCVSYDGFDETEKSEFQDMVTEVRKIENYINERFQGKIHAVYGCSLGG | not soluble |
| MGSDKIHHHHHHMPSIFEKYHLKQVINTSGRMTALGVSTPRPEVVEAAMAGMNQYFEMKDLVNKTGEYIAKLLDVEGATVVSCASAGIAQSVAAVLVKDSDWLLENLHVTPIENNEIVLPKGHNVNFGAPVGTMVALGGGKLVEAGYANECSAQQLAAAITPRTAAILYIKSHHCVQKSMLNVAQAAEVARQHNVPLIVDAAAEEDLQCYYRMGADLVIYSGAKAIEGPTSGLVIGKTQYVEWVKRQSMGIGRAMKVGKEGILGLTCAIEHYLTASKESGQQMVAKMTPFIEQLNTLNGVTARVVWDSAGRDIARAEIKFDEATTGVKTGDLVNALKQGEYAIYFRGYKANEGIIEADVRSVNAQQLEVVARRIAEVLNKEKQA | not soluble |
| MTESDLRTHATEIHEQFSDQLEIDVDDVIERLDTLVNDYQVPISEARRSVVNTYLDEAGMDRDQLGGGDGGGNEQVNVADVDAPEEWVDVRATVVELWEPRADAVAQVGLLGDETGTIKFTKWSKSDLPSLEEGKSYALRNVVTDEYQGRFSVKLNRTTTIEELDEAIEVGDDSVEADGALVDIQSGSGLIKRCPEDDCTRVLQNGRCSEHGEVEGEFDLRIKGVLDDGEEVTEVIFDEDATEELTGIALEEAKEMAMDALDTTVVADEMRQKILGRYYRVRGPTFGRYLLADEQERLTGAVDADEILIKARSILEHHHHHH | not soluble |
| SMAENGDNEKMAALEAKICHQIEYYFGDFNLPRDKFLKEQIKLDEGWVPLEIMIKFNRLNRLTTDFNVIVEALSKSKAELMEISEDKTKIRRSPSKPLPEVTDEYKNDVKNRSVYIKGFPTDATLDDIKEWLEDKGQVLNIQMRRTLHKAFKGSIFVVFDSIESAKKFVETPGQKYKETDLLILFKDDYFAKKNE | soluble |
| MSHQIRSKKTLWELVGRNKDALRDFLKEHRGTILLRDIASEHKVVYKPIFKRYNGDPDLIEDNSNDVEHWYDYHLERYWNTPELKKEFYKKFGPVDLNQPIILAKPLRQHNRGDLVHLLPQFVVPVYN | soluble |

Source: the DeepSol protein solubility set
